Data taken from patent publication US20260242735A1 (UNIVERSIT T BASEL, published 2026).

What was measured:
human CD33 D18A = human CD33 D18A (human, UniProt P20138 19-364); assay: flow cytometry, alanine scan
human CD33 P19A = human CD33 P19A (human, UniProt P20138 18-364); assay: flow cytometry, alanine scan
human CD33 N20A = human CD33 N20A (human, UniProt P20138 18-364); assay: flow cytometry, alanine scan
human CD33 F21A = human CD33 F21A (human, UniProt P20138 18-364); assay: flow cytometry, alanine scan
human CD33 F21A, sequence (P20138 18-364 F21A limits assumed): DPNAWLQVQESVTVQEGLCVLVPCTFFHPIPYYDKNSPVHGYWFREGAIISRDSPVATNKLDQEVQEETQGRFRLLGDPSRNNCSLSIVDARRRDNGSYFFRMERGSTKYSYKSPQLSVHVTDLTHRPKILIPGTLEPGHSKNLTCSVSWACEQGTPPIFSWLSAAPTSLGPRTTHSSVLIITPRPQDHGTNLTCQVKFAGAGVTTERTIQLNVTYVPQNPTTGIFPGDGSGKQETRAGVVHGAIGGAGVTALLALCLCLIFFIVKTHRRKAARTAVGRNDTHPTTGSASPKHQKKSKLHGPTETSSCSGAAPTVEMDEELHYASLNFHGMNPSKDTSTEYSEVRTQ

human CD33 W22A = human CD33 W22A (human, UniProt P20138 18-364); assay: flow cytometry, alanine scan
human CD33 W22A, sequence (P20138 18-364 W22A limits assumed): as the sequence (P20138 18-364 F21A limits assumed) above, with A4F, W5A counted along it

human CD33 L23A = human CD33 L23A (human, UniProt P20138 18-364); assay: flow cytometry, alanine scan
human CD33 L23A, sequence (P20138 18-364 L23A limits assumed): as the sequence (P20138 18-364 F21A limits assumed) above, with A4F, L6A counted along it

human CD33 E27A = human CD33 E27A (human, UniProt P20138 18-364); assay: flow cytometry, alanine scan
human CD33 E27A, sequence (P20138 18-364 E27A limits assumed): as the sequence (P20138 18-364 F21A limits assumed) above, with A4F, E10A counted along it

human CD33 S28A = human CD33 S28A (human, UniProt P20138 18-364); assay: flow cytometry, alanine scan
human CD33 S28A, sequence (P20138 18-364 S28A limits assumed): as the sequence (P20138 18-364 F21A limits assumed) above, with A4F, S11A counted along it

human CD33 V29A = human CD33 V29A (human, UniProt P20138 18-364); assay: flow cytometry, alanine scan
human CD33 V29A, sequence (P20138 18-364 V29A limits assumed): as the sequence (P20138 18-364 F21A limits assumed) above, with A4F, V12A counted along it

human CD33 T30A = human CD33 T30A (human, UniProt P20138 18-364); assay: flow cytometry, alanine scan
human CD33 T30A, sequence (P20138 18-364 T30A limits assumed): as the sequence (P20138 18-364 F21A limits assumed) above, with A4F, T13A counted along it

human CD33 V31A = human CD33 V31A (human, UniProt P20138 18-364); assay: flow cytometry, alanine scan
human CD33 V31A, sequence (P20138 18-364 V31A limits assumed): as the sequence (P20138 18-364 F21A limits assumed) above, with A4F, V14A counted along it

human CD33 Q32A = human CD33 Q32A (human, UniProt P20138 18-364); assay: flow cytometry, alanine scan
human CD33 Q32A, sequence (P20138 18-364 Q32A limits assumed): as the sequence (P20138 18-364 F21A limits assumed) above, with A4F, Q15A counted along it

human CD33 E33A = human CD33 E33A (human, UniProt P20138 18-364); assay: flow cytometry, alanine scan
human CD33 E33A, sequence (P20138 18-364 E33A limits assumed): as the sequence (P20138 18-364 F21A limits assumed) above, with A4F, E16A counted along it

human CD33 G34A = human CD33 G34A (human, UniProt P20138 18-364); assay: flow cytometry, alanine scan
human CD33 G34A, sequence (P20138 18-364 G34A limits assumed): as the sequence (P20138 18-364 F21A limits assumed) above, with A4F, G17A counted along it

human CD33 L35A = human CD33 L35A (human, UniProt P20138 18-364); assay: flow cytometry, alanine scan
human CD33 L35A, sequence (P20138 18-364 L35A limits assumed): as the sequence (P20138 18-364 F21A limits assumed) above, with A4F, L18A counted along it

human CD33 C36A = human CD33 C36A (human, UniProt P20138 18-364); assay: flow cytometry, alanine scan
human CD33 C36A, sequence (P20138 18-364 C36A limits assumed): as the sequence (P20138 18-364 F21A limits assumed) above, with A4F, C19A counted along it

human CD33 V37A = human CD33 V37A (human, UniProt P20138 18-364); assay: flow cytometry, alanine scan
human CD33 V37A, sequence (P20138 18-364 V37A limits assumed): as the sequence (P20138 18-364 F21A limits assumed) above, with A4F, V20A counted along it

human CD33 L38A = human CD33 L38A (human, UniProt P20138 18-364); assay: flow cytometry, alanine scan
human CD33 L38A, sequence (P20138 18-364 L38A limits assumed): as the sequence (P20138 18-364 F21A limits assumed) above, with A4F, L21A counted along it

human CD33 V39A = human CD33 V39A (human, UniProt P20138 18-364); assay: flow cytometry, alanine scan
human CD33 V39A, sequence (P20138 18-364 V39A limits assumed): as the sequence (P20138 18-364 F21A limits assumed) above, with A4F, V22A counted along it

human CD33 P40A = human CD33 P40A (human, UniProt P20138 18-364); assay: flow cytometry, alanine scan
human CD33 P40A, sequence (P20138 18-364 P40A limits assumed): as the sequence (P20138 18-364 F21A limits assumed) above, with A4F, P23A counted along it

human CD33 C41A = human CD33 C41A (human, UniProt P20138 18-364); assay: flow cytometry, alanine scan
human CD33 C41A, sequence (P20138 18-364 C41A limits assumed): as the sequence (P20138 18-364 F21A limits assumed) above, with A4F, C24A counted along it

human CD33 T42A = human CD33 T42A (human, UniProt P20138 18-364); assay: flow cytometry, alanine scan
human CD33 T42A, sequence (P20138 18-364 T42A limits assumed): as the sequence (P20138 18-364 F21A limits assumed) above, with A4F, T25A counted along it

human CD33 F43A = human CD33 F43A (human, UniProt P20138 18-364); assay: flow cytometry, alanine scan
human CD33 F43A, sequence (P20138 18-364 F43A limits assumed): as the sequence (P20138 18-364 F21A limits assumed) above, with A4F, F26A counted along it

human CD33 H45A = human CD33 H45A (human, UniProt P20138 18-364); assay: flow cytometry, alanine scan
human CD33 H45A, sequence (P20138 18-364 H45A limits assumed): as the sequence (P20138 18-364 F21A limits assumed) above, with A4F, H28A counted along it

human wild-type CD33 = biological target: T1, human wild-type CD33 (human, UniProt P20138 18-364); assay: flow cytometry, Fab at 1.00 ug/ml on HEK293-T cells expressing CD33 against vector alone
T1 construct: also called SIGLEC3; P67
T1 sequence (P20138 18-364 limits assumed): as the sequence (P20138 18-364 F21A limits assumed) above, with A4F counted along it
Procedure: Serial dilutions of each Fab were tested for immunoreactivity against cells expressing wild-type CD33 or vector alone. The optimal screening concentration for the Fabs was determined based on the raw signal values and signal-to-background calculations. Each point represents the mean of four replicates.

human CD33 D18A, sequence (P20138 18-364 D18A limits assumed): as the sequence (P20138 18-364 F21A limits assumed) above, with D1A, A4F counted along it
human CD33 N20A, sequence (P20138 18-364 N20A limits assumed): as the sequence (P20138 18-364 F21A limits assumed) above, with N3A, A4F counted along it
human CD33 P19A, sequence (P20138 18-364 P19A limits assumed): as the sequence (P20138 18-364 F21A limits assumed) above, with P2A, A4F counted along it

B1: Refmab #6 (antibody, V domains shown)
VH: QVQLQQPGAEVVKPGASVKMSCKASGYTFTSYYIHWIKQTPGQGLEWVGVIYPGNDDISYNQKFQGKATLTADKSSTTAYMQLSSLTSEDSAVYYCAREVRLRYFDVWGQGTTVTVSS
VL: EIVLTQSPGSLAVSPGERVTMSCKSSQSVFFSSSQKNYLAWYQQIPGQSPRLLIYWASTRESGVPDRFTGSGSGTDFTLTISSVQPEDLAIYYCHQYLSSRTFGQGTKLEIK
notes: The alanine scan used IgG or Fab
Human CD33 D18A
  Mean % WT Binding: 39.5 % of WT
Human CD33 P19A
  Mean % WT Binding: 87.4 % of WT
Human CD33 N20A
  Mean % WT Binding: 92.9 % of WT
Human CD33 F21A
  Mean % WT Binding: 88.1 % of WT
Human CD33 W22A
  Mean % WT Binding: 3.8 % of WT
Human CD33 L23A
  Mean % WT Binding: 41.4 % of WT
Human CD33 E27A
  Mean % WT Binding: 92.6 % of WT
Human CD33 S28A
  Mean % WT Binding: 89.4 % of WT
Human CD33 V29A
  Mean % WT Binding: 112 % of WT
Human CD33 T30A
  Mean % WT Binding: 104 % of WT
Human CD33 V31A
  Mean % WT Binding: 105 % of WT
Human CD33 Q32A
  Mean % WT Binding: 91.3 % of WT
Human CD33 E33A
  Mean % WT Binding: 90 % of WT
Human CD33 G34A
  Mean % WT Binding: 100 % of WT
Human CD33 L35A
  Mean % WT Binding: 97.2 % of WT
Human CD33 C36A
  Mean % WT Binding: 110 % of WT
Human CD33 V37A
  Mean % WT Binding: 111 % of WT
Human CD33 L38A
  Mean % WT Binding: 105 % of WT
Human CD33 V39A
  Mean % WT Binding: 79.2 % of WT
Human CD33 P40A
  Mean % WT Binding: 55.5 % of WT
Human CD33 C41A
  Mean % WT Binding: 4.5 % of WT
Human CD33 T42A
  Mean % WT Binding: 36.6 % of WT
Human CD33 F43A
  Mean % WT Binding: 34.6 % of WT
Human CD33 H45A
  Mean % WT Binding: 87.8 % of WT

B2: Refmab #2 Fab fragment (Fab, V domains shown)
VH: QVQLVQSGAEVKKPGSSVKVSCKASGGTFSDYAISWVRQAPGQGLEWMGRIIPILGVADYAQKFQGRVTITADKSTRTAYMELSSLRSEDTAVYYCARNWADAFDIWGQGTMVTVSS
VL: DIQLTQSPSSLSASVGDRVTITCRASQGISSVLAWYQQKPGKAPKLLIYDASSLESGVPSRFSGSGSGTDFTLTISSLQPEDFATYYCQQFDSSITFGQGTKLEIK
Human wild-type CD33
  Signal:Background: 7 signal:background ratio

B3: Refmab #3 Fab fragment (Fab, V domains shown)
VH: QVQLVQSGAEVKKPGSSVKVSCKASGYTFTDYNMHWVRQAPGQGLEWIGYIYPYNGGTGYNQKFKSKATITADESTNTAYMELSSLRSEDTAVYYCARGRPAMDYWGQGTLVTVSS
VL: DIQMTQSPSSLSASVGDRVTITCRASESVDNYGISFMNWFQQKPGKAPKLLIYAASNQGSGVPSRFSGSGSGTDFTLTISSLQPDDFATYYCQQSKEVPWTFGQGTKVEIK
Human wild-type CD33
  Signal:Background: 12 signal:background ratio
